Measurements reported in US20170321196A1, “ANALYTICAL AND DIAGNOSTIC METHODS UTILIZING SHIGELLA FLEXNERI APYRASE” (priority 2014, published 2017).
“And” between values parts separate entries of the source, which are not always exact repeats. Equal entries are not always repeated. “Also recorded” adds a separate entry of the source.

What was measured:
rSFA = experiment: Inhibitor development: inhibition of rSFA; format: biochemical, Shigella flexneri
Procedure: After checking the rSFA inhibitory activity in buffer, it was verified with urine, where 10 μl were added with 80 μl of cell lysate reagent and 10 μmol/L of ATP. About 100 mM of MgSO4 and 1 mM of Na3VO4 were added in separate tubes and incubated for 10 min before measuring the light emission using firefly luciferase.

firefly luciferase = target: T1, firefly luciferase (Photinus pyralis, UniProt P08659); experiment: Inhibitor development: effect on luciferase; format: biochemical
T1 construct: purchased BioThema AB, Sweden ATP Kit SL
T1 sequence (P08659 whole entry): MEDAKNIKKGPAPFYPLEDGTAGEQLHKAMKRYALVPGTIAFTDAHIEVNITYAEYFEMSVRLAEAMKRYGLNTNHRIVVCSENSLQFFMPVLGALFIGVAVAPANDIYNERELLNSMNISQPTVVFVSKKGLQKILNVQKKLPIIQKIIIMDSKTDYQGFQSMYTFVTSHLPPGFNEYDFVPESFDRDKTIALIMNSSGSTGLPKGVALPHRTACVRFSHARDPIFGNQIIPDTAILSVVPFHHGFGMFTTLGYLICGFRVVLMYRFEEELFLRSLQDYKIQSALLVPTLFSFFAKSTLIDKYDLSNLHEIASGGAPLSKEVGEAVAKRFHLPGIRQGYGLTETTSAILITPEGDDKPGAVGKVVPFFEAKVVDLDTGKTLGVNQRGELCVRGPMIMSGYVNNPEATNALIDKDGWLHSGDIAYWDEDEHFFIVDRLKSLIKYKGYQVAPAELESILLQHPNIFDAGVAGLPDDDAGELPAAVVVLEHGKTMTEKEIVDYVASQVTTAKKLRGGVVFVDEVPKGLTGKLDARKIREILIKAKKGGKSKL
Procedure: After checking the rSFA inhibitory activity in buffer, it was verified with urine, where 10 μl were added with 80 μl of cell lysate reagent and 10 μmol/L of ATP. […]

[1] = SFA activity across pH and in EDTA; format: biochemical
[2] = SFA stability to freeze-thaw and refrigerator storage; format: physicochemical; details: crude form, without addition of stabilizers
Procedure: The rSFA samples were kept at 4° C., then frozen and freeze-thawed to check its stability. An effort was made to see if the rSFA could be used to prepare a reagent for the depletion of extraneous ATP in biological samples.

[3] = ATP degradation by apyrase in buffer, firefly luciferase bioluminescent assay; format: biochemical; details: for time to eliminate ATP: enzymes diluted 10× in Tris-EDTA Buffer; for ATP depletion rate: No serum (Negative control)
Procedure: (§1) Cuvettes contained 100 μL sample in a total volume of 1 mL containing ATP Reagent SL (BioThema AB, Sweden) in 0.07 mol/L Tris- EDTA Buffer and the reaction was started by injection of 10 μL 10 μmol/L ATP Standard. The initial apyrase activity was determined as described by Lundin and coworkers (Analytical Biochemistry 75, 611-620 (1976) and Methods in Enzymology vol 305, 346-370 (2000)) with some modifications. Bioluminescence was measured at every 10 s during 1 min, in the fully automatic 1251 Luminometer (LKB-Wallac, Turku, Finland). To this, 10 μl of 10 μmol/L ATP was added to determine the background ground luminescence. The temperature control was set to 25° C. and bioluminescence was measured from several cuvettes in parallel during 30 or 60 minutes and compared to residual ATP after various incubation times using rSFA and STA. This was repeated with rSFA and STA and a graph was plotted by keeping the ATP-degradation rate as internal control to determine the ATP-degradation efficiency of both of the enzyme sources.
(§2) Light emission from the firefly-luciferase reaction was measured at 25° C. in a 1251 Luminometer (LKB-Wallac; Finland) using the ATP Kit SL (BioThema AB, Sweden) according to the manufacture's instruction (in buffer experiment) or adding concentrated luciferase (in serum/urine experiments). Initially luciferase reaction follows first-order kinetics and the ATP Reagent SL in this kit produces light intensity proportional to the ATP concentration. A plot of the natural logarithm of the light intensity versus time yields a straight line with the slope representing the rate constant of the reaction. Starting concentration of STA, A6535, A6237 (Sigma-Aldrich) was adjusted similar to rSFA. BL-reaction was started automatically upon addition of 0.2 μmol/L ATP, and the light intensity was measured every 10 second for 10 minutes (in buffer experiment) or 30 minutes (in serum and urine experiments), in the reaction volume of 0.5 mL.

[4] = Elimination of extracellular ATP in serum, bioluminescent assay; format: biochemical; parameters: ATP depletion rate: unit not given beside the values; details: for time after which no further ATP elimination: 10% serum, FIG. 8; for time to complete hydrolysis of ATP and its analogues: 100% crude serum, FIG. 6A
Procedure: as §1, §2

[5] = ATP elimination in urine, bioluminescent assay; format: biochemical; details: for time to complete ATP elimination: after 4 subsequent injections of 10 μL 10 μmol/L ATP
Procedure: as §2

[6] = HPLC analysis of nucleotide degradation: ATP; format: biochemical; details: for time to complete conversion of ATP: STA to ADP and AMP, rSFA to AMP
Procedure: (§3) To compare rSFA activity on nucleotides to that of STA, ATP, dATP, dTTP, dGTP and dCTP were incubated with the enzymes (same initial activity) for 5 min and 35 min and the resulting products were detected using high performance liquid chromatography (HPLC).
(§4) The dNTP Standard preparation was prepared to contain final concentration of 0.1 mM […]. Nucleosides ATP/dATP/dCTP/dGTP/dTTP were suspended in Tris-EDTA buffer and diluted 10 times with the mobile phase (70% acetonitrile, 30% ammonium acetate pH 5.35). The above-prepared nucleosides were individually incubated with equal amounts of rSFA and STA for 35 min at pH 7.75 and 5 μl of the mixture was injected into HPLC instrument (SeQuant ZIC®-pHILIC column, Merck Millipore) at a flow rate of 0.7 mL/min using a pump (Jasco PU-2089 Plus). Peaks were detected at 254 nm by UV-2075 Plus detector and the chromatographic separation was achieved using isocratic elution. Analysis was performed using Chrompass software, where each nucleotide/nucleoside was identified by comparison with retention time of the respective standards.

[7] = HPLC analysis of nucleotide degradation: dATP; format: biochemical
Procedure: as §3, §4

[8] = HPLC analysis of nucleotide degradation: dTTP; format: biochemical; details: STA to TDP and TMP, rSFA to TMP
Procedure: as §3, §4

[9] = HPLC analysis of nucleotide degradation: dCTP; format: biochemical
Procedure: as §3, §4

[10] = Buffer optimization: rSFA activity after storage, bioluminescent ATP-elimination assay; format: physicochemical; details: stored in Buffer 3 about 10 months at +4° C.; compared with Buffer 1 and 2
Procedure: Equal concentration of rSFA was stored in Buffer 1(20 mM Tris, 1 mM EDTA, 1% BSA, 25 mM MgSO4, pH 7.5), Buffer 2 (20 mM Tris, 25 mM MgSO4, 2.5% BSA, pH 7.5) and Buffer 3 (20 mM HEPES, 500 mM NaCl, 25 mM MgSO4, pH 7.5) for about 10 months at 4° C. Bioluminescence activity assay was performed as described below to detect the activity of rSFA after storage.

[11] = Hydrolysis of ADP and ATP/ADP mixture in urine; format: biochemical; details: 10 μmol/L, FIG. 10
Procedure: as §2, with “BL-reaction was started automatically upon addition of 0.2 μmol/L ATP, and the light intensity was measured every 10 second for 10 minutes (in buffer experiment) or 30 minutes (in serum and urine experiments), in the reaction volume of 0.5 mL.” left out

[12] = ATP degradation by apyrase in buffer, firefly luciferase bioluminescent assay; format: biochemical
[13] = Undiluted serum (100% crude serum)

O=S(=O)([O-])[O-].[Mg+2] [MgSO4]
inhibition of rSFA activity (rSFA; 100 mM MgSO4): showed inhibitory action | inhibition of rSFA activity (rSFA; magnesium at 50 mM): completely inhibit | effect on luciferase activity (firefly luciferase; 100 mM MgSO4): affected the activity of luciferase | effect on luciferase activity (firefly luciferase; magnesium at 50 mM): decreased the activity of luciferase

[O]=[V]([O-])([O-])[O-] [ortho-vanadate]
inhibition of rSFA activity (rSFA; 1 mM ortho-vanadate (Na3VO4)): completely inhibited | effect on luciferase activity (firefly luciferase; 1 mM ortho-vanadate): did not affect luciferase at all

B1: SFA: Apyrase derived from Shigella flexneri, recombinant or non-recombinant; native sequence SEQ ID NO: 10 (protein, listed as Shigella flexneri)
chain: MKTKNFLLFCIATNMIFIPSANALKAEGFLTQQTSPDSLSILPPPPAENSVVFQADKAHYEFGRSLRDANRVRLASEDAYYENFGLAFSDAYGMDISRENTPILYQLLTQVLQDSHDYAVRNAKEYYKRVRPFVIYKDATCTPDKDEKMAITGSYPSGHASFGWAVALILAEINPQRKAEILRRGYEFGESRVICGAHWQSDVEAGRLMGASVVAVLHNTPEFTKSLSEAKKEFEELNTPTNELTP
activity in high concentrations of EDTA [1]: remains to be active | pH range of very good activity [1]: 7.0-7.5 | stability [2]: tolerates freeze-thaw-cycles and storage in solution at refrigerator temperatures

B2: rSFA: Recombinant Shigella flexneri apyrase with 6-His tag, amino-acid sequence SEQ ID NO: 4, expressed in E. coli BL21-A1 (protein, listed as Shigella flexneri)
chain: DIHMKTKNFLLFCIATNMIFIPSANALKAEGFLTQQTSPDSLSILPPPPAENSVVFQADKAHYEFGRSLRDANRVRLASEDAYYENFGLAFSDAYGMDISRENTPILYQLLTQVLQDSHDYAVRNAKEYYKRVRPFVIYKDATCTPDKDEKMAITGSYPSGHASFGWAVALILAEINPQRKAEILRRGYEFGESRVICGAHWQSDVEAGRLMGASVVAVLHNTPEFTKSLSEAKKEFEELNTPTNELTPHHHHHHRTMF
modifications: 6-His tag
rate constant of ATP elimination ([3]; FIG. 4): 3.87 min⁻¹ | time to eliminate ATP ([3]; FIG. 4): ~10 min and ~15 min | ATP depletion rate [3]: 3.98 | time after which saturated and ineffective in further reducing the ATP concentration ([3]; in buffer, FIG. 7): > 300 s | ATP depletion rate ([4]; 10% Diluted serum): 1.774 | time after which no further ATP elimination [4]: > 30 min | time to complete hydrolysis of ATP and its analogues [4]: ~17 min | ATP depletion rate [4, 13]: 1.816 | time to complete ATP elimination [5]: less than 3 min | time to complete conversion of ATP [6]: less than 5 min | time to full conversion of dATP into dAMP [7]: less than 5 min | time to conversion of dTTP [8]: less than 5 min | time to complete conversion of dCTP into CMP [9]: less than 5 min | activity after storage [10]: particularly good activity; also recorded: very good activity | change of activity with ADP or mixture of ADP and ATP [11]: no substantial difference; also recorded: not affected

B3: STA: Solanum tuberosum apyrase, commercially available potato apyrase from Sigma-Aldrich, SEQ ID NO: 9 (protein, listed as Solanum tuberosum)
chain: MLNQNSHFIFIILAIFLVLPLSLLSKNVNAQIPLRRHLLSHESEHYAVIFDAGSTGSRVHVFRFDEKLGLLPIGNNIEYFMATEPGLSSYAEDPKAAANSLEPLLDGAEGVVPQELQSETPLELGATAGLRMLKGDAAEKILQAVRNLVKNQSTFHSKDQWVTILDGTQEGSYMWAAINYLLGNLGKDYKSTTATIDLGGGSVQMAYAISNEQFAKAPQNEDGEPYVQQKHLMSKDYNLYVHSYLNYGQLAGRAEIFKASRNESNPCALEGCDGYYSYGGVDYKVKAPKKGSSWKRCRRLTRHALKINAKCNIEECTFNGVWNGGGGDGQKNIHASSFFYDIGAQVGIVDTKFPSALAKPIQYLNAAKVACQTNVADIKSIFPKTQDRNIPYLCMDLIYEYTLLVDGFGLNPHKEITVIHDVQYKNYLVGAAWPLGCAIDLVSSTTNKIRVASS
Initial activity [3]: 4.12 Units/mg protein | time to eliminate ATP ([3]; FIG. 4): > 60 min | ATP depletion rate [3]: 3.52 | Remaining ATP activity after 1 min ([3]; after 1 min): 1.1876% | Remaining ATP activity after 17 min ([3]; after 17 min): 0.0367% | amount of ATP remaining lower in STA samples compared to rSFA (factor) ([3]; after one minute): ~2 | ATP depletion rate ([4]; 10% Diluted serum): 2.429 | time after which no further ATP elimination [4]: 6 min | time to complete hydrolysis of ATP and its analogues [4]: ~45 min | ATP depletion rate [4, 13]: 0.5536 | time after which rate of action was hindered ([5]; FIG. 9): 3 min | time to complete ATP elimination [5]: > 20 min | cleavage of ATP to ADP and AMP ([6]; 5 min incubation): only partially cleaved | time to complete conversion of ATP [6]: 35 min | dATP remaining ([7]; after 35 min of incubation): more than 25% | time to conversion of dTTP [8]: 35 min | portion of dCTP converted into CDP and CMP ([9]; after 35 min): only half | change of activity with ADP or mixture of ADP and ATP [11]: considerably decreased | Remaining ATP activity after 91 min [12]: 0.0228%
